Measured values taken from patent US20260347504 (published 2026).

Columns and labels:
human RAGE ECD = human RAGE ECD (human, UniProt Q15109); assay: SPR, RAGE immobilized
human TLR4 ECD = human TLR4 ECD (human, UniProt O00206); assay: SPR, TLR4 immobilized
human TLR4 ECD, sequence (O00206 1-631): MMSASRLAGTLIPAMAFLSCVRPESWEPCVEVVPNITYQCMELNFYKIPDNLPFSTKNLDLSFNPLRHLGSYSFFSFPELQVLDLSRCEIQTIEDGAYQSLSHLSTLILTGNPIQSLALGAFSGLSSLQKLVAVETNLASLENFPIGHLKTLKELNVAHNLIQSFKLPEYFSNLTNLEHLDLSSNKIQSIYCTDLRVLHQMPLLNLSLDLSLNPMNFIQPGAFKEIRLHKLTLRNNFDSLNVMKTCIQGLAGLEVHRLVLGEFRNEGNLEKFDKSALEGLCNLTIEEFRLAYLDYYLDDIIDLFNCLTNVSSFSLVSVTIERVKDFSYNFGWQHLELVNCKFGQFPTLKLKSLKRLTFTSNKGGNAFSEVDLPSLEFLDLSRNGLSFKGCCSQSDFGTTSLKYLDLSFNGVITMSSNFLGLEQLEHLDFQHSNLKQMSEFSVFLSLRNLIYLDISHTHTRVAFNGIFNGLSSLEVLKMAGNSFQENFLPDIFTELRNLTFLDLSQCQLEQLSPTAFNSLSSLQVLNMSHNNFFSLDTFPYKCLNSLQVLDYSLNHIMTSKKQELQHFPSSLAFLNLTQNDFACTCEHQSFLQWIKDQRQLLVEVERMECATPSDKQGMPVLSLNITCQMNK

human RAGE ECD, sequence (Q15109 1-344): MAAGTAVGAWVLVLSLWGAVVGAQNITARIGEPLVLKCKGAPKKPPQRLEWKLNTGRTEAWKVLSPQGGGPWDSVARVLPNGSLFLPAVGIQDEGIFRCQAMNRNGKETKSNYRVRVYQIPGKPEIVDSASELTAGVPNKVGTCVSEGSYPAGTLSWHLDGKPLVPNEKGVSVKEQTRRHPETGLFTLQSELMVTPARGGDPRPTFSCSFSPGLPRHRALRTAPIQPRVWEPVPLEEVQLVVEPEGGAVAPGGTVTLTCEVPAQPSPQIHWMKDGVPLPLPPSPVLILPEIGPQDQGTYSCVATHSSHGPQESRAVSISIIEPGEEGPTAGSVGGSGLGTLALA

- Kd (human RAGE ECD): 3 nM
- Kd (human TLR4 ECD): 64.4 nM
B1: human pCTS-L (protein)
chain: ATLTFDHSLEAQWTKWKAMHNRLYGMNEEGWRRAVWEKNMKMIELHNQEYREGKHSFTMAMNAFGDMTSEEFRQVMNGFQNRKPRKGKVFQEPLFYEAPRSVDWREKGYVTPVKNQGQCGSCWAFSATGALEGQMFRKTGRLISLSEQNLVDCSGPQGNEGCNGGLMDYAFQYVQDNGGLDSEESYPYEATEESCKYNPKYSVANDTGFVDIPKQEKALMKAVATVGPISVAIDAGHESFLFYKEGIYFEPDCSSEDMDHGVLVVGYGFESTESDNNKYWLVKNSWGEEWGMGGYVKMAKDRRNHCGIASAASYPTV
